Laboratory results reported in a protein production outcome set (Wang et al. 2014).

Test: label from the status in PepcDB records

Sequence	protein production
MSAPTTFSVALHNETATAQLMADLALLVGPGDVITLTGDLGAGKTAAARAMIRYLADDEALEVPSPTFTLVQGYELPPFPVMHADLYRVEDESELEEIGLSPLPDATLVLIEWPERAPSALPEDRIDIALTHRPALGSNARAADITGYGKSAAQVARLKALREFLDASGYLDAMRRRMAGDASTRSYARLLRDDEIVILMNFPQRPDGAALYNGKSYSAAVHLAENVKPFVAIDEGLRAQGISAPAIHHADLDHGFLISEDFGSEGVIEGNPPRPIPERYEAATDVLAVLHGKTLPETLPLDGQSYAIPVFDTEAMLIEIGLMPEWYLPDRNAPLSEPKRAEFFAMWRELLKKPLAAPRTWIIRDYHSPNLIWLGMRTGIERVGVIDFQDTVLGPQSYDVVSLLQDARIDVPENLELTLLSRYIKARRAGDASFDPAGFAELYAIMSAQRNTRLLGTFARLNRRDGKPHYLRHQPRIWTYLQRSLAHPALSHLRDWYLANVPPPQRPSQEPAPEPPQGLEHHHHHH	not failed
MSARSLRQEALNLPNAITATRIALIPVFLWFTFYESRVDSFIAAVLYAVTGATDFLDGWVARRKNLVTVIGKFLDPLADKLIVMAALVMLVHLGRVAAWVCIVVLAREFIVTGLRTIAMSEGIVIAAGQEGKHKTAFQVAGITFLLLHYTYPIDAIFFSFDLDANRVGTWLVYISLFFSVWSAVSYFANFIRAVYRREGEAQAAEDVRPNRRTSRG	failed
MSASAPQAHGPAATGTVTTDVPARLDRLPWSRWHWMIVIGLGTVWILDGLEVTTVGNIAGRLSEDGSGLSITSAQVTGVAAALYVAGACAGALFFGWLTDRFGRKKLFMVTLVVYLSATALTALSFNSWWFFTFRFLTGFGIGGEYAAINSAIDELIPAKYRGRVDLIINGSYWLGAIGGALLSIVMLDTSIFPKDLGWRLTFALGVVLGLVILLVRRHVPESPRWQFIHGRGEDAEALVSSVEREIEQEKGEPLPRAESEITIEQRKSIGFGLIAKTVFGRYPKRAVLGLALFIGQAFLYNAITFGFGAILTTFYDVPTGGTGYYFAVIAAGNFIGPLLLGKLFDTVGRRIMIASTYLLSGLLLFGTAWLFDRGSLSAMTLTACWCAVLFFASAGASSAYLTVSEVFPMETRAMAIAFFYALGTAAGGISGPLVFADLTESGVVGDTVLAFQIGAGLMCAAGLVAAFLAVNAERRSLEDIAEPLSVAQTTAPAPASASGT	failed
MSASRRSGTTDELGPDGPDPERDGPDGADLLAALLDGMDAALCAFDADGVVTHWNREAERILGWTAAEAVGRRGFAGWAVRTADAEDVEARLMTAMQAPGRQVHEFALLTKDGGRVLVRTQSAAVHGPDGKPAGVYCAFSEVHTQIDLERSIALSEALFEDASWGVVLVDADLRPAVVNAHAARALGTGRTTVLGRPLGDLLSQGVEELESALTHVLAEGAPPAPAEMWVSVRTAEGEKRRCWRSGFLRLASPLAEEPVPLGVGWLFQDITEAKQTEQEAALLRFRTNQLHRAARAAAECEDPGEAATVHLDFSLAGFADHALIDRVAGGPVADGDRDGDGPPVRLVRAADTPSGAPGPSLLVGKAELPVWYAEGHPALQCVERAGSVRASAGVSDAERAREWAISRQWPGDAVHALCAVLRSRGRTLGVVTFLRGAGRSQFERADAVYAEDVAVRIAAALDLAGLAGLAGPAGER	failed
MSATFSPTAVTDLKDIQDVERLMGRIKEARAAVGEVIFGQEAVVDEVLVTLLAGGHALLIGLPGLAKTKLVQTLGTVVGLRDKRVQFTPDLMPADILGSEVLEEDAAGQRGFRFLPGPVFCQLLMADEINRASPRTQSALLQAMQEHRVSVAGHYHDLPAPFHVLATQNPIEQEGTYPLPEAQLDRFLMQVDVGYPDEAAERRMLAATTGVHQPEARAVMTPAELQAAQALVRRVPVGDSVVDAILSLVRAGRPESSPLPEVRDWVAWGPGPRASQALTLAVRARALLDGRFAPSIEDVIALAHPILRHRMALSFGARADGVTLGRVVDRLIDKIALEHHHHHH	not failed
MSATLQDHTVAFRDPALTDIARAIAHGDVARIKALAPTVDLAAHGDQNVTLLEWAIWNEQPRALAALLDAGADPSLPGMDQETVVHMAAMAQDPEYLQILLQHKAPIDVVSARAGWTPLFRAMQSKRDAQIDLLIKAGADVQRVDHTGNSLLHLAAQSGAASPAVLTLLNAGVDPAVRNAQQKTFQAYFFTTPDRLLNASGQQVRSEVRAWLNAHNIPVESSR	failed
MSAVCGGAARMLRTPGRHGYAAEFSPYLPGRLACATAQHYGIAGCGTLLILDPDEAGLRLFRSFDWNDGLFDVTWSENNEHVLITCSGDGSLQLWDTAKAAGPLQVYKEHAQEVYSVDWSQTRGEQLVVSGSWDQTVKLWDPTVGKSLCTFRGHESIIYSTIWSPHIPGCFASASGDQTLRIWDVKAAGVRIVIPAHQAEILSCDWCKYNENLLVTGAVDCSLRGWDLRNVRQPVFELLGHTYAIRRVKMESCPVTQTRSQLTATSAFWVQAVLLPQPTE	failed
MSAVTESVLESIISPVTMSEFLEEYWPVKPLVARGEVERFTSIPGFEKVRTLENVLAIYNNPVMVVGDAVIEESEGITDRFLVSPAEALEWYEKGAALEFDFTDLFIPQVRRWIEKLKAELRLPAGTSSKAIVYAAKNGGGFKAHFDAYTNLIFQIQGEKTWKLAKNENVSNPMQHYDLSEAPYYPDDLQSYWKGDPPKEDLPDAEIVNLTPGTMLYLPRGLWHSTKSDQATLALNITFGQPAWLDLMLAALRKKLISDNRFRELAVNHQSLHESSKSELNGYLESLIQTLSENAETLTPEQIFQSQDSDFDPYQSTQLVFRQLLTSYKF	not failed
MSCFYLDLLKIKDPSFMKRLDIQELEALAADIRAFLITSTSKSGGHIGPNLGVVELTIALHYSFNSPKDKFIWDVGHQSYVHKILTGRANQFGTLREHGGLDGFPKRKESIHDVFETGHSSTSLSAAAGMVIARDIKKEDFYVIPIIGDGALTGGMALEALNHIGDMGKDMIVILNDNDMSIAPNVGAIHNILGKLRTSDTSKQTKTNVDGAFFEELGFMYLGPIDGHDIEEVITNLELAKRAKGPVLLHIVTKKGKGYQPAELDSRGTWHGTGPYKVETGSFIKPAKRAASWSSVISNELIRLAEMDERIVAITPAMPVGSKLEKFAKAFPERFFDVGIAEQHATTMAAGLATQGMKPFLAIYSTFLQRAYDQLVHDVCRQKLNVVIGIDRAGLVGADGETHQGIFDISFLNSIPNMTISMPKDEVEARQLMDTAFSYNDGPFAIRYPRGEAPGVQVVESNTLIPIGQWETIIQPLDAVILTFGPTIELALKAAEQLEIEGYRVGVINARYIKPLDEALLHKILKQKIPILTVEESLLKGGFGASVLEFIEANNYRDVIMHRIGLPDEFISHGSVSIILESFGISTTGLVLKIKEMLAQSGKLRAKRL	failed
MSCHLSYLEGTMEFMISGRNLTVSDRFREYAGEKISKIESLGDKVQRVDAKVSKETNPRQTPGELTVEVTVLGRGPVIRAEATAADKFAAFDLAYNKLLERLRRAKDRKKVHHGRHTPKAVREATATLEPASASEPLYVEASNHQESAPPVDERSPYDIENDIPAGDSPVLIRRKVFPAASLTLDDAVDNMELVGHNFYLFLDKETNAPSVVYRRSGWTYGVITLDSTCEPGEEAVEEKIHAYRSDDQAATAK	failed
